Assay results published in article PMC5026484 (eLife, 2016).

Molecular target: the molecule itself
Test: crystal structure; X-ray; sitting/hanging-drop vapour diffusion, 20°C; data from beamline X10SA, SLS

B1: Selenomethionine derivative of Mical-3 residues 1841-1990 (domain or fragment, human, UniProt Q7RTP6 1841-1990, looked up)
chain: KQEELKRLHRAQIIQRQLQQVEERQRRLEERGVAVEKALRGEAGMGKKDDPKLMQEWFKLVQEKNAMVRYESELMIFARELELEDRQSRLQQELRERMAVEDHLKTEEELSEEKQILNEMLEVVEQRDSLVALLEEQRLREREEDKDLEA
modifications: selenomethionine in place of methionine
notes: Mical-3, human, whole predicted bMERB domain, residues 1841-1990 (isoform 1); printed elsewhere as 1841-1992; Two copies in the asymmetric unit of the crystal; also called SeMet Mical-3; seleno-L-methionine labelled Mical-3_(1841–1990)
Does B1 bind?
Result: binds
